Measurements reported in patent publication US20030219740.

Tests used:
[1] = target: carboxyl terminal APC fragment (UniProt P25054)
Sequence of carboxyl terminal APC fragment (P25054 2168-2843): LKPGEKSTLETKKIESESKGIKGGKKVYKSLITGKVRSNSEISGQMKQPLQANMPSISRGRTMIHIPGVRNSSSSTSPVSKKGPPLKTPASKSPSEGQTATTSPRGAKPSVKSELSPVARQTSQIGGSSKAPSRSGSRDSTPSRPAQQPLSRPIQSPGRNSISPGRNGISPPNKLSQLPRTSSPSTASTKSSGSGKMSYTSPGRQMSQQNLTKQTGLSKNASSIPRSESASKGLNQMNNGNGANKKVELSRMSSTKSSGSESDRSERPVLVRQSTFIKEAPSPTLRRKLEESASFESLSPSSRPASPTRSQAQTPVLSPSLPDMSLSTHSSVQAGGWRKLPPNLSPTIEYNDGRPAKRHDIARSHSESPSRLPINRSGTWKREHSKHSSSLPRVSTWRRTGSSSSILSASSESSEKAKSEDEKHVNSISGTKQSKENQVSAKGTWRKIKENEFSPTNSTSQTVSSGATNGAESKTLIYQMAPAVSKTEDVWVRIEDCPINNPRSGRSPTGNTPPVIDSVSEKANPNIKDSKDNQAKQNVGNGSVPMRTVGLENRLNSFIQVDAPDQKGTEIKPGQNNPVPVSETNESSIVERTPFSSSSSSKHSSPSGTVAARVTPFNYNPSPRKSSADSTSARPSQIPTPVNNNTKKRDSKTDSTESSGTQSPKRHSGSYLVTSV

Protein: MNSRPRRRDIDRLEHLHLTEFGLKLGQKIFLLNKRDFILFLSLF (enzyme) [CATX-2 protein]
- phosphorylation in vitro (γ-32P) (histone): CATX-2 protein could phosphorylate histone 5 µg
- phosphorylation in vitro (γ-32P) (poly-threonine): CATX-2 protein could phosphorylate histone 5 µg, poly-threonine 5 µg
- phosphorylation in vitro (γ-32P) [1]: CATX-2 protein could phosphorylate histone 5 µg, poly-threonine 5 µg, and COOH-APC fragment (1-5 µg)
